Reference: patent US20250009808A1

Each substance was assayed against rat RT1A class I histocompatibility antigen (rat (Rattus norvegicus)) (UniProt P16391) (assay: heterogeneous rat liver cells incubated with antibody; cell count of retained versus flow-through fractions).
UniProt P16391, sequence (P16391 25-371 limits assumed): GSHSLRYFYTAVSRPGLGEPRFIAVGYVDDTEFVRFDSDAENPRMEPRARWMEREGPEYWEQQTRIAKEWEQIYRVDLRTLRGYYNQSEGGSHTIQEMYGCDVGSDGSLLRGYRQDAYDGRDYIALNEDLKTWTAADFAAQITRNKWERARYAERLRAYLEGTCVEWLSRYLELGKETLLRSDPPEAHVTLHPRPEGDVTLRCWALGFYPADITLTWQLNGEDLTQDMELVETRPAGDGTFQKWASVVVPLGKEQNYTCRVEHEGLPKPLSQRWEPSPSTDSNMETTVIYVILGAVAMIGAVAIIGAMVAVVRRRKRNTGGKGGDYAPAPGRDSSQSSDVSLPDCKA

percent of total cells in the population bound [%]	Substance
< 10	anti-RT1A monoclonal antibody IgG2a MRC clone OX-27
60	anti-RT1A monoclonal antibody IgG1 MRC clone OX-18
> 60	anti-RT1A monoclonal antibody IgG1 clone F16-4-4
